In patent US5445951A, “Regioselective enzymatic deacylation of sucrose esters in anhydrous organic media” (priority 1993, dated 1995):

Legend:
[1] = assay type: physicochemical; conditions: estimated from known log P values / increments
Source text: ^a) log P is a measurement of the solvent hydrophobicity (logarithm o
the solvent partition coefficient between noctanol and water [Rekker, "Th
Hydrophobic Fragmental Constant", Elsevier, Amsterdam (1977)]). The log P
values from this table are from Laane et al. , Biotechnol Bioeng. 30,81

lipase AY 30 = experiment: Effect of the solvent on lipase AY 30 SOA deacetylation; assay type: biochemical, Candida cylindracea; conditions: lipase AY 30, solvent as labelled, 24 hrs
[2] = Solubility in hydrophobic solvents; assay type: physicochemical; conditions: more hydrophobic solvents, e.g., hexane, cyclohexane, heptane, octane
[3] = SOP deacylation catalyzed by pH precipitated enzymes in diisopropyl ether; assay type: biochemical; conditions: for buffer pH (optimal pH for enzyme activity in anhydrous media): SOP deacylation; for SOP / SheptaP's / ShexaP's: diisopropyl ether, 24 hrs; for capability of deacetylating SOP: pH precipitated, in words
Protocol: To increase the number and/or activities of enzymes active with SOP, pH precipitation experiments, as described for SOA, were undertaken.
(§1) The pH of commercial powdered enzymes was adjusted in the following way: The enzyme (3 g) was dissolved in 25 ml of an appropriate buffer and the pH adjusted with dilute NaOH or citric/phosphoric acid solution. Cold acetone (37.5 ml at -20° C.) was added and the precipitate collected on a medium porosity glass funnel and dried overnight at 2 millitorr. The protein pellet was ground to a fine powder and equilibrated at 4° C. over saturated aqueous potassium carbonate (RH: 43%) for 24 hrs.

[4] = SOA deacetylation catalyzed by pH precipitated enzymes in diisopropyl ether; assay type: biochemical; conditions: for buffer pH (optimal pH for enzyme activity in anhydrous solvents): SOA deacetylation; for SheptaAs / ShexaAs / SOA: diisopropyl ether, 24 hrs incubation, HPLC; for SOA: residual SOA
Protocol: A wide variety of hydrolytic enzymes were initially screened for their ability to regioselectively deacetylate SOA in organic solvents. […] Enzyme activity is dependent upon the presence of a minimum shell of water surrounding the enzyme. […] It is known that one way to improve the catalytic power of an enzyme in organic solvent is to use it in the right ionic state.
as §1
(§2) Enzyme and Solvent Screening for SOA Deacetylation. A scintillation vial was charged successively with 100 mg of powdered enzyme as received or prepared as described and 1.0 ml of 20 mM sucrose octaacetate (SOA) dissolved in an organic solvent. Following a 5 sec sonication, the vial was incubated in a controlled-temperature shaker at 45° C. and 300 RPM for 24 hrs. A 200 μl aliquot of the reaction mixture was withdrawn and centrifuged. The supernatant was collected and evaporated under a stream of N2. The residue was reconstituted in 200 μl of acetonitrile and 10 μl of this solution was analyzed by HPLC.

[5] = SOP hydrolytic enzyme screen in heptane with n-butanol; assay type: biochemical; conditions: 24 hrs; for SheptaP's ([…]): HPLC peak […]; for SOP: residual SOP; on SheptaP's ([…]): HPLC peak 8.2 min
Protocol: To extend the scope and utility of this study, sucrose octapropionate was synthesized and used as substrate in enzyme catalyzed deacylation reactions. […] The hydrolytic enzymes were screened for their capability to deacylate SOP in heptane with n-butanol as the nucleophile. After 24 hrs incubation aliquots were analyzed by HPLC.
Enzyme screening for SOP deacylation in heptane. A scintillation vial was charged successively with 100 mg of powdered enzyme as received or prepared as described and 1.0 ml of 20 mM sucrose octapropionate (SOP) and 200 mM butanol dissolved in an organic solvent. Following a 5 sec sonication, the vial was incubated in a controlled-temperature shaker at 45° C. and 300 RPM for 24 hrs. A 200 μl aliquot of the reaction mixture was withdrawn and centrifuged. The supernatant was collected and 10 μl of this solution was analyzed by HPLC.

[6] = as obtained from supplier; cited from earlier work
[7] = Activity and regioselectivity of enzymes for SOA deacetylation; assay type: biochemical; conditions: for buffer pH (optimal pH for enzyme activity in anhydrous diisopropyl ether): SOA deacetylation; for % conv: total of all sucrose hepta and hexa acetates; for regioselectivity of SOA deacetylation: in words
Protocol: An important aspect of this work was to assign, unequivocally, the structures of all sucrose hepta-, hexa-, and pentaacetates obtained by enzymatic deacetylation of SOA. These structures were assigned by perdeuterioacetylation followed by ^1 H-NMR, as described by Rathbone E. B., Carbohydr. Res., 205,402 (1990).
HPLC analysis. Routine screening was performed on a Supelcosil LC-18-DB column (150×4.6 mm, 5μ) using an isocratic mode with either acetonitrile/water (35/65) or acetonitrile/water (60/40) as eluant for reactions involving sucrose octaacetate (SOA) and sucrose octapropionate (SOP), respectively. All flow rates were 1.0 ml/min with UV detection at 220 nm. To identify all products from SOA deacetylation, a gradient mode was employed using 15% to 35% acetonitrile in water over 40 minutes followed by 35/65 acetonitrile/water isocratic elution for 20 minutes. To screen nucleophiles for SOA deacetylation, an isocratic elution mode was employed using 30/70 acetonitrile/water for 16 min followed by a gradient from 30% to 35% acetonitrile in water over 5 min and finally isocratic elution using 35/65 acetonitrile/water for 16 min. To assess the enzyme regiochemistry for SOA deacetylation, an isocratic elution mode was employed using 25/75 acetonitrile/water for 55 minutes.
Identification of the Sucrose Hepta, Hexa or Pentaacetates Obtained Enzymatically. The fraction of sucrose hepta, hexa or pentaacetates were identified as follows. The compound(s) of interest was dissolved in 1.0 ml 99.0 atom % pyridine--d5 followed by addition of 1.0 ml 99 +atom % acetic anhydride--d6. The resulting solution was shaken at 45° C. and 300 RPM for several hours until TLC analysis (silica gel, 9/1 CHCl3 /MeOH) indicated complete reaction. The reaction mixture was evaporated in vacuo and the residue washed several times with water to remove residual pyridine-d5 and/or acetic anhydride-d6. The resulting oily solid was dissolved in 5 ml off chloroform and passed through Whatmann 12.5 cm 1 PS silicone treated filter paper to remove water.
as §1, §2

[8] = HPLC sucrose heptaacetate peak height

For CC1(C)CCC(C)(C)O1 [2,2,5,5-tetramethyl THF, 2,2,5,5-tetramethyltetrahydrofuran], the “log P” value [1] was 2.5, the SOA (lipase AY 30) was 68.4% and the SheptaA (lipase AY 30) was 31.6%.

With CC1CCCO1 (stereo not drawn) [2-methyl THF, 2-methyltetrahydrofuran] the “log P” value [1] was 1.0, the SOA (lipase AY 30) was 96.2% and the SheptaA (lipase AY 30) was 3.8%. It also gave a ShexaA (lipase AY 30) of 0%.

In the case of CC1CCC(C)O1 (stereo not drawn) [2,5-dimethyl THF, 2,5-dimethyltetrahydrofuran], the “log P” value [1] is reported as 1.5, the SOA (lipase AY 30) is reported as 96.2% and the SheptaA (lipase AY 30) is reported as 3.8%. The ShexaA (lipase AY 30) was 0%.

For CCC(=O)OC[C@H]1O[C@@](COC(=O)CC)(O[C@H]2O[C@H](COC(=O)CC)[C@@H](OC(=O)CC)[C@H](OC(=O)CC)[C@H]2OC(=O)CC)[C@@H](OC(=O)CC)[C@@H]1OC(=O)CC [SOP, sucrose octapropionate], the “solubility versus SOA” value [2] was “significantly enhanced solubility”.

With chymotrypsin the “buffer pH (optimal pH for enzyme activity in anhydrous media)” value [3] was 8.0, the SOP [3] was 98.2% and the “SheptaP's” value [3] was 1.8%. The “ShexaP's” value [3] was 0%, the “buffer pH (optimal pH for enzyme activity in anhydrous solvents)” value [4] was 8.0 and the SheptaAs [4] was 2.5%. The ShexaAs [4] was 0%, the SOA [4] was 97.5% and the “SheptaP's ([…])” value [5] was 3.9. For the same molecule, the SOP [5] was 96.1%, the enzyme activity [6] was 48 U/mg and the “buffer pH (optimal pH for enzyme activity in anhydrous diisopropyl ether)” value [7] was 8.0. The “% conv” value [7] was < 6%.

In the case of bromelain, the “SheptaP's (9.6 min)” value ([5]; HPLC peak 9.6 min) is reported as 0.3, the “SheptaP's ([…])” value [5] is reported as 0.7 and the SOP [5] is reported as 99.0%. For the same molecule, the enzyme activity [6] was 22.9 U/mg.

In the case of CCOCCOCC [ethylene glycol diethyl ether], the “log P” value [1] is reported as 0.87, the SOA (lipase AY 30) is reported as 85.0% and the SheptaA (lipase AY 30) is reported as 13.5%. For the same molecule, the ShexaA (lipase AY 30) was 1.5%.

B1: lipase type II: Sigma, porcine pancreas, 50 U/mg (protein, UniProt P00591 1-450, looked up)
Pancreatic triacylglycerol …: SEVCFPRLGCFSDDAPWAGIVQRPLKILPWSPKDVDTRFLLYTNQNQNNYQELVADPSTITNSNFRMDRKTRFIIHGFIDKGEEDWLSNICKNLFKVESVNCICVDWKGGSRTGYTQASQNIRIVGAEVAYFVEVLKSSLGYSPSNVHVIGHSLGSHAAGEAGRRTNGTIERITGLDPAEPCFQGTPELVRLDPSDAKFVDVIHTDAAPIIPNLGFGMSQTVGHLDFFPNGGKQMPGCQKNILSQIVDIDGIWEGTRDFVACNHLRSYKYYADSILNPDGFAGFPCDSYNVFTANKCFPCPSEGCPQMGHYADRFPGKTNGVSQVFYLNTGDASNFARWRYKVSVTLSGKKVTGHILVSLFGNEGNSRQYEIYKGTLQPDNTHSDEFDSDVEVGDLQKVKFIWYNNNVINPTLPRVGASKITVERNDGKVYDFCSQETVREEVLLTLNPC
With B1 the “buffer pH (optimal pH for enzyme activity in anhydrous media)” value [3] was 7.0, the SOP [3] was 96.5% and the “SheptaP's” value [3] was 3.5%. The “ShexaP's” value [3] was 0%, the “capability of deacetylating SOP” value [3] was “capable of deacetylating SOP” and the “buffer pH (optimal pH for enzyme activity in anhydrous solvents)” value [4] was 7.0. For the same molecule, the SheptaAs [4] was 13.5%, the ShexaAs [4] was 0.6% and the SOA [4] was 85.9%. The “SheptaP's (9.2 min)” value ([5]; HPLC peak 9.2 min) was 0.2, the “SheptaP's ([…])” value [5] was 1.7 and the BuOpropionate ([5]; butyl propionate formed, peak area) was 59 cAUs. The SOP [5] was 98.1%, the enzyme activity [6] was 50 U/mg and the “regiochemistry 4'OH” value [7, 8] was 1. For the same molecule, the “regiochemistry 6'OH” value [7, 8] was 1, the “buffer pH (optimal pH for enzyme activity in anhydrous diisopropyl ether)” value [7] was 7.0 and the “regioselectivity of SOA deacetylation” value [7] was “the primary deacetylation product is the 4'- OH heptaacetate”. For the same molecule, the “regioselectivity of SOA deacetylation” value ([7]; listed as Porcine pancreatic lipase) was “at the 4' position” and the “% conv” value [7] was 14.1%.

B2: alcalase: Novo Nordisk, Bacillus licheniformis (protein, UniProt P00780 106-379, looked up)
Subtilisin Carlsberg: AQTVPYGIPLIKADKVQAQGFKGANVKVAVLDTGIQASHPDLNVVGGASFVAGEAYNTDGNGHGTHVAGTVAALDNTTGVLGVAPSVSLYAVKVLNSSGSGSYSGIVSGIEWATTNGMDVINMSLGGASGSTAMKQAVDNAYAKGVVVVAAAGNSGSSGNTNTIGYPAKYDSVIAVGAVDSNSNRASFSSVGAELEVMAPGAGVYSTYPTNTYATLNGTSMASPHVAGAAALILSKHPNLSASQVRNRLSSTATYLGSSFYYGKGLINVEAAAQ
With B2 the “buffer pH (optimal pH for enzyme activity in anhydrous media)” value [3] was 9.0, the SOP [3] was 81.8% and the “SheptaP's” value [3] was 15.9%. For the same molecule, the “ShexaP's” value [3] was 2.3%, the “capability of deacetylating SOP” value [3] was “capable of deacetylating SOP” and the “buffer pH (optimal pH for enzyme activity in anhydrous solvents)” value [4] was 9.0. It also gave a SheptaAs [4] of 39.7%, a ShexaAs [4] of 10.9% and an SOA [4] of 49.4%. The “regiochemistry 1'OH” value [7, 8] was 13, the “regiochemistry 6'OH” value [7, 8] was 2 and the “buffer pH (optimal pH for enzyme activity in anhydrous diisopropyl ether)” value [7] was 9.0. The “regioselectivity of SOA deacetylation” value [7] was “primarily at 1'- position with some reaction occurring at the 6'- position”, the “regioselectivity of SOA deacetylation” value ([7]; listed as Alcalase) was “at the 1' position and secondarily at the 6' position” and the “% conv” value [7] was 28.1%.

B3: papain: Sigma, Papaya latex (protein, UniProt P00784 134-345, looked up)
Papain: IPEYVDWRQKGAVTPVKNQGSCGSCWAFSAVVTIEGIIKIRTGNLNEYSEQELLDCDRRSYGCNGGYPWSALQLVAQYGIHYRNTYPYEGVQRYCRSREKGPYAAKTDGVRQVQPYNEGALLYSIANQPVSVVLEAAGKDFQLYRGGIFVGPCGNKVDHAVAAVGYGPNYILIKNSWGTGWGENGYIRIKRGTGNSYGVCGLYTSSFYPVKN
For B3, the “SheptaP's (7.0 min)” value ([5]; HPLC peak 7.0 min) was 0.3, the “SheptaP's ([…])” value [5] was 0.9 and the SOP [5] was 98.8%. For the same molecule, the enzyme activity [6] was 2.8 U/mg.
